Patent US20250002593A1 (INMAGENE PTE, published 2025)
Where a chain is given by its changes, count along the chain named. Numbers in names are those of the source. Values belong to the binder of their own block, whether it stands above or below them.

Columns and labels:
[1] = molecular target: T1, recombinant hFcRn-his/B2M heterodimer protein (Acrobio, Cat #FCM-H82W4) (human, UniProt P55899 24-297; P61769 21-119); test: BLI (Gator) at pH 6.0, hFcRn-his/B2M on anti-his sensor, antibody analyte
T1 construct: Bought heterodimer
Method: (§1) The binding affinity of antibodies to hFcRn was evaluated with Gator Bio-analysis system. Briefly, recombinant hFcRn-his/B2M heterodimer protein (Acrobio, Cat #FCM-H82W4) was loaded to anti-his sensor, serially diluted antibodies were used as analyte. Association and dissociation were performed in pH6.0 KD buffer.

[2] = molecular target: T1, recombinant hFcRn-his/B2M heterodimer …; test: as above; remark: listed apart in the source
Method: as §1

Kd [1]: 13.7 nM
koff [1]: 0.00398 s⁻¹
kon [1]: 290000 M⁻¹ s⁻¹
fold increase of binding affinity against 5F7-2a8-WT [2]: ~10 fold
B1: 5F7-2a8-QA (antibody, human IgG4 S228P, kappa)
heavy: EVQLVESGGGLVKPGGSLRLSCAASGFAFGDYYMNWVRQAPGKGLEWVALIRNKAAGYTIYYSAPVKGRFTISRDDSKSTLYLQMNSLKTEDTAVYYCVRDMTIYDGYYVDYALDYWGQGTLVTVSSASTKGPSVFPLAPCSRSTSESTAALGCLVKDYFPEPVTVSWNSGALTSGVHTFPAVLQSSGLYSLSSVVTVPSSSLGTKTYTCNVDHKPSNTKVDKRVESKYGPPCPPCPAPEFLGGPSVFLFPPKPKDTLMISRTPEVTCVVVDVSQEDPEVQFNWYVDGVEVHNAKTKPREEQFNSTYRVVSVLQVLHQDWLNGKEYKCKVSNKGLPSSIEKTISKAKGQPREPQVYTLPPSQEEMTKNQVSLTCLVKGFYPSDIAVEWESNGQPENNYKTTPPVLDSDGSFFLYSRLTVDKSRWQEGNVFSCSVMHEALHAHYTQKSLSLSLGK
light: DIVMTQSPSSVSASVGDRVTITCRASRNINIWLSWYQQKPGKAPKLFIYKASNLHTGVPSRFSGSGSGTDFTLTISSLQPEDFATYYCLQSQSYPLTFGQGTKLEIKRTVAAPSVFIFPPSDEQLKSGTASVVCLLNNFYPREAKVQWKVDNALQSGNSQESVTEQDSKDSTYSLSSTLTLSKADYEKHKVYACEVTHQGLSSPVTKSFNRGEC
notes: 5F7-2a8 with T307Q/N434A in the IgG4 (S228P) Fc; also called 5F7-QA

Kd [1]: 15.4 nM
koff [1]: 0.00277 s⁻¹
kon [1]: 180000 M⁻¹ s⁻¹
fold increase of binding affinity against 5F7-2a8-WT [2]: ~10 fold
B2: 5F7-2a8-YTE (antibody, human IgG4 S228P, kappa)
heavy: B1 heavy with M259Y, S261T, T263E, Q314T, A441N
light: B1 light
notes: 5F7-2a8 with M252Y/S254T/T256E in the IgG4 (S228P) Fc; also called 5F7-YTE
